Legend:
[1] = biological target: MAGEA1 peptide VRFFFPSL (SEQ ID NO: 1) presented by HLA-C*07:02 (human); experiment: cell-based or functional assay
… (10) = … (10) (Homo sapiens, UniProt C*07:02); experiment: cell-based or functional assay

B1: MAGEA1 TCR 32-41 (TCR, V domains shown)
V domain 1: QLLEQSPQFLSIQEGENLTVYCNSSSVFSSLQWYRQEPGEGPVLLVTVVTGGEVKKLKRLTFQFGDARKDSSLHITAAQPGDTGLYLCAGDESISYGKLTFGQGTILTVHP
V domain 2: DAGVIQSPRHEVTEMGQEVTLRCKPISGHDYLFWYRQTMMRGLELLIYFNNNVPIDDSGMPEDRFSAKMPNASFSTLKIQPSEPRDSAVYFCASSFLGWNEKLFFGSGTQLSVLE
With B1 the “EC50 [table, row MAGEA1, column Peptide EC50]” value [1] was about 0.25 nM.

B2: MAGEA1 TCR 32-39 (TCR, V domains shown)
V domain 1: DQQVKQNSPSLSVQEGRISILNCDYTNSMFDYFLWYKKYPAEGPTFLISISSIKDKNEDGRFTVFLNKSAKHLSLHIVPSQPGDSAVYFCAASAQNNDMRFGAGTRLTVKP
V domain 2: NAGVMQNPRHLVRRRGQEARLRCSPMKGHSHVYWYRQLPEEGLKFMVYLQKENIIDESGMPKERFSAEFPKEGPSILRIQQVVRGDSAAYFCASSPSYEQYFGPGTRLTVTE
B2 was tested, and the “EC50 (read off the curve) [left panel '4hr Killing (IFP)']” value (… (10)) was about 8 ng/mL.

From patent publication US20230270832A1 (TSCAN THERAPEUTICS, published 2023)
